This note sets out measurements from publication PMC4383067.

The target of the assay is Full-length human acetylcholinesterase (dimeric, recombinant) (human) (UniProt P22303). Nature of the assay: SEC-MALS.

Consider “Full-length human acetylcholinesterase (dimeric, recombinant) (from UniProt P22303 32-614) (enzyme)”, for which the stoichiometry N came out at 2.
